{"source": "paper PMC13315578", "binders": {"B1": {"name": "tRNA ArgUCU (structured_RNA)", "RNA": "GGACCCGUAGCCUAGCCUGGAUAGGGCACCGGCCUUCUAAGCCGGGGGUCGGGGGUUCAAAUCCCCCCGGGUCCGCCA"}}, "settings_in_all_cases": "protein: recombinant; tags: N-terminal 6xHis-TEV site; tRNA fold, annealed", "key": {"Min Elp3 E207A": {"molecular_target": "T1, Min Elp3 E207A (Methanocaldococcus infernus, UniProt D5VRB9 1-534, E207A)", "T1 sequence": "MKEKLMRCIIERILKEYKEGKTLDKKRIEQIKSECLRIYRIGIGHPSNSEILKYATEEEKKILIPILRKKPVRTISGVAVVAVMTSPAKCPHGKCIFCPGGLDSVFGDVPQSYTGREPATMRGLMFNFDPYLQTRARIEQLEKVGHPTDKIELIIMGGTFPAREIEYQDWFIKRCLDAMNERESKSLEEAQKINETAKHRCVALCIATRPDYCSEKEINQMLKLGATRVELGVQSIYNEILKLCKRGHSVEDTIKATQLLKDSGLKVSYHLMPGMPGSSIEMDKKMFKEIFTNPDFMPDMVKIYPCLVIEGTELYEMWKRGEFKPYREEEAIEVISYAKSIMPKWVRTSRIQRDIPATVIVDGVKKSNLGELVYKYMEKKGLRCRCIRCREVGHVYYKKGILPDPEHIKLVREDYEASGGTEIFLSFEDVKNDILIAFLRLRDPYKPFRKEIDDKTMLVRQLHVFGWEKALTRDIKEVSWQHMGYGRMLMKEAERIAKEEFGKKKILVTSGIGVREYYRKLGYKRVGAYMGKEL", "assay": "EMSA; similar affinity to WT; EMSA: 250 nM tRNA, 0-20 uM Elp3, 100 mM HEPES pH 7.5, 750 mM NaCl, 25 mM DTT, 20 °C 30 min; 5% TBE gel at 4 °C"}, "Min Elp3 K302A": {"molecular_target": "T2, Min Elp3 K302A (Methanocaldococcus infernus, UniProt D5VRB9 1-534, K302A)", "T2 sequence": "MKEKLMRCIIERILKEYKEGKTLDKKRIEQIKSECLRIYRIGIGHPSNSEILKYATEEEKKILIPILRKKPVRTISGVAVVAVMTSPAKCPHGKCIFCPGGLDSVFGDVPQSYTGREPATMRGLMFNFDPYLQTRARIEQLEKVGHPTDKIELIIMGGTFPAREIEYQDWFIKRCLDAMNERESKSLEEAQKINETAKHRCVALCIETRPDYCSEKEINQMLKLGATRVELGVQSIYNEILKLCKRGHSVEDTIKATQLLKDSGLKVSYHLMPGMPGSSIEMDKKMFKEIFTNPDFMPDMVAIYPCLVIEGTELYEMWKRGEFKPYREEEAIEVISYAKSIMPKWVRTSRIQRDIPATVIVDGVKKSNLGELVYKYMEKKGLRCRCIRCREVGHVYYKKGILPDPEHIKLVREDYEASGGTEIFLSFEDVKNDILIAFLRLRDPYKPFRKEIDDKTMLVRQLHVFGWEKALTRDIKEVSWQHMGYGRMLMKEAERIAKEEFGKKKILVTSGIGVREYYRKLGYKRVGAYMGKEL", "assay": "EMSA; similar affinity to WT; EMSA: 250 nM tRNA, 0-20 uM Elp3, 100 mM HEPES pH 7.5, 750 mM NaCl, 25 mM DTT, 20 °C 30 min; 5% TBE gel at 4 °C"}, "Min Elp3 Y304A": {"molecular_target": "T3, Min Elp3 Y304A (Methanocaldococcus infernus, UniProt D5VRB9 1-534, Y304A)", "T3 sequence": "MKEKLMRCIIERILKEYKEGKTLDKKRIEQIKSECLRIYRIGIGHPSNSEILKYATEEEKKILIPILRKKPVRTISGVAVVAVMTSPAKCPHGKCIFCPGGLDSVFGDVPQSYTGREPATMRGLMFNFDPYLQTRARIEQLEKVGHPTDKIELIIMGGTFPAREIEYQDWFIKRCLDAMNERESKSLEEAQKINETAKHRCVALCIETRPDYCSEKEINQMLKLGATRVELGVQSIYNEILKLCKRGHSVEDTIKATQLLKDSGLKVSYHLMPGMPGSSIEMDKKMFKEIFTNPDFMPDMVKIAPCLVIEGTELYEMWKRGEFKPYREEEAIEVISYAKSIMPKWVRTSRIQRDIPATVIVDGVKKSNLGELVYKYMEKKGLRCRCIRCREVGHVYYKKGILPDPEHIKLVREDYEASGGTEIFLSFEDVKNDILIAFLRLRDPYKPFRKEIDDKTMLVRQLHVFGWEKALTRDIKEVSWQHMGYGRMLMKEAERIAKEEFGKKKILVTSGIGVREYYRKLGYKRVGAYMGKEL", "assay": "EMSA; EMSA: 250 nM tRNA, 0-20 uM Elp3, 100 mM HEPES pH 7.5, 750 mM NaCl, 25 mM DTT, 20 °C 30 min; 5% TBE gel at 4 °C"}, "Min Elp3 M156W": {"molecular_target": "T4, Min Elp3 M156W (Methanocaldococcus infernus, UniProt D5VRB9 1-534, M156W)", "T4 sequence": "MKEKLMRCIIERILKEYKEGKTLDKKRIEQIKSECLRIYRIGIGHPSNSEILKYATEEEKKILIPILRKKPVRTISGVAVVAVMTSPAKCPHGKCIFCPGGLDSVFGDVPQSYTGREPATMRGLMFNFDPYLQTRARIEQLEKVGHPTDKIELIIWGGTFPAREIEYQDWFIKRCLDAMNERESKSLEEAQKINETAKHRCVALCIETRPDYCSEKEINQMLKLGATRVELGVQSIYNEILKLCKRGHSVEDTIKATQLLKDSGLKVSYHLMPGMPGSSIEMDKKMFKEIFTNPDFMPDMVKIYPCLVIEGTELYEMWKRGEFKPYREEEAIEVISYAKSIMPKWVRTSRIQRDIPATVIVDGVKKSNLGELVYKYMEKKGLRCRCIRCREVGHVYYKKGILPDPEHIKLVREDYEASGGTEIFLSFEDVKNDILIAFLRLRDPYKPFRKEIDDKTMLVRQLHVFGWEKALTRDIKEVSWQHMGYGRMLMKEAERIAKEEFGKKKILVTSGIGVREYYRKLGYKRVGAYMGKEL", "assay": "EMSA; comparable affinity to WT; EMSA: 250 nM tRNA, 0-20 uM Elp3, 100 mM HEPES pH 7.5, 750 mM NaCl, 25 mM DTT, 20 °C 30 min; 5% TBE gel at 4 °C"}, "Min Elp3 I154W": {"molecular_target": "T5, Min Elp3 I154W (Methanocaldococcus infernus, UniProt D5VRB9 1-534, I154W)", "T5 sequence": "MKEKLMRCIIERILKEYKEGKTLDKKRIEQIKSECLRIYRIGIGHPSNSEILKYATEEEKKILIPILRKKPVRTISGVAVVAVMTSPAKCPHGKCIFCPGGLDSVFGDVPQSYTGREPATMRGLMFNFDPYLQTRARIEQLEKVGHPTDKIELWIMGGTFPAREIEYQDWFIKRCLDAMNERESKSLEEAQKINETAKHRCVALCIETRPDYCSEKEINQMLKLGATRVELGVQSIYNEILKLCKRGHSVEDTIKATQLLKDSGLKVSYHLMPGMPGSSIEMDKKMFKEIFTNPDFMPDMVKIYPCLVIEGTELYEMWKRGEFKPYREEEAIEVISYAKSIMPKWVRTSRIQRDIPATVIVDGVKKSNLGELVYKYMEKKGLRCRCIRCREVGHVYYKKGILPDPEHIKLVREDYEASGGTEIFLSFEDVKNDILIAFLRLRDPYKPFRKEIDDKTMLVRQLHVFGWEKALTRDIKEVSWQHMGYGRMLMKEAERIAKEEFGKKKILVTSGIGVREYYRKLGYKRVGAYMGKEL", "assay": "EMSA; comparable affinity to WT; EMSA: 250 nM tRNA, 0-20 uM Elp3, 100 mM HEPES pH 7.5, 750 mM NaCl, 25 mM DTT, 20 °C 30 min; 5% TBE gel at 4 °C"}}}
{"binder": "B1", "values": [{"measurement": "binding result", "setting": "Min Elp3 E207A", "value": "binds"}, {"measurement": "binding result", "setting": "Min Elp3 K302A", "value": "binds"}, {"measurement": "binding signal", "setting": "Min Elp3 Y304A", "value": "~1.5", "unit": "fold KD increase vs WT"}, {"measurement": "binding result", "setting": "Min Elp3 M156W", "value": "binds"}, {"measurement": "binding result", "setting": "Min Elp3 I154W", "value": "binds"}]}
